These results are taken from patent EP4772193A1 (Teijin Pharma Limited, dated 2026).

Where a chain is given by its changes, count along the chain named. Names and notes keep the numbering of the source.

T1: recombinant human soluble gpNMB (recombinant human gpNMB-FLAG-His) (human, UniProt Q14956 23-498)
T1 sequence: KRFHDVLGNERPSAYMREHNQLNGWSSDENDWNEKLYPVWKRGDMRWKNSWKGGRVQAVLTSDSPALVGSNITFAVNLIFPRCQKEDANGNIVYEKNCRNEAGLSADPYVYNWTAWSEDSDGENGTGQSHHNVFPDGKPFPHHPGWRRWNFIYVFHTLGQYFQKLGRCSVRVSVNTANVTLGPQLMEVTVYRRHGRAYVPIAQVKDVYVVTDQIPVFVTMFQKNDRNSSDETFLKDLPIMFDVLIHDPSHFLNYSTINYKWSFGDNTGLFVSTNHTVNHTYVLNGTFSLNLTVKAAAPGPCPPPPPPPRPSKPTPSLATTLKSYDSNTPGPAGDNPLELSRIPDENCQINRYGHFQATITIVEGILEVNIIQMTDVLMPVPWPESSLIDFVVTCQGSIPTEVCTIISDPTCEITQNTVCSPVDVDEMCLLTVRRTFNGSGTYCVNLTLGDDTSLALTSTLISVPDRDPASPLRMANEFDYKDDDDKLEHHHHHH

B1: hGPN06-1_H1L1 VL H88A (antibody, V domains shown)
VH: QVQLVQSGAEVKKPGASVKVSCKASGYTFTDNWMGWVKQRPGQGLEWIGAIDPSDSFTNYNQNFKGRVTMTVDTSISTAYMELSRLRSDDSAVYFCTRSGYYGSPKLGGDYWGQGTLVTVSS
VL: EIVLTQSPSSLSASVGDRVTITCSASSSISYMHWYQQKSGTAPKLLIYSTSNLASGVPSRFSGSGSGTDFTFTISSLQPEDAATYYCAQWNSYPCTFGGGTKLEIK
B2: hGPN06-1_H1L1 VL P94A (antibody, V domains shown)
VH: B1 VH
VL: B1 VL with A88H, P94A
B3: hGPN06-1_H1L1 VL C95A (antibody, V domains shown)
VH: B1 VH
VL: B1 VL with A88H, C95A
B4: hGPN06-1_H1L1 VL N52A (antibody, V domains shown)
VH: B1 VH
VL: B1 VL with N52A, A88H
B5: hGPN06-1_H1L1 VL S24A (antibody, V domains shown)
VH: B1 VH
VL: B1 VL with S24A, A88H
B6: hGPN06-1_H1L1 VL N91A (antibody, V domains shown)
VH: B1 VH
VL: B1 VL with A88H, N91A
B7: hGPN06-1_H1L1 VL H33A (antibody, V domains shown)
VH: B1 VH
VL: B1 VL with H33A, A88H
B8: hGPN06-1_H1L1 VL Q89A (antibody, V domains shown)
VH: B1 VH
VL: B1 VL with A88H, Q89A
B9: hGPN06-1_H1L1 VL I29A (antibody, V domains shown)
VH: B1 VH
VL: B1 VL with I29A, A88H
B10: hGPN06-1_H1L1 VL M32A (antibody, V domains shown)
VH: B1 VH
VL: B1 VL with M32A, A88H
B11: hGPN06-1_H1L1 VL L53A (antibody, V domains shown)
VH: B1 VH
VL: B1 VL with L53A, A88H
B12: hGPN06-1_H1L1 VH F57A (antibody, V domains shown)
VH: B1 VH with F57A
VL: B1 VL with A88H
B13: hGPN06-1_H1L1 VH T30A (antibody, V domains shown)
VH: B1 VH with T30A
VL: B1 VL with A88H
B14: hGPN06-1_H1L1 VH G35A (antibody, V domains shown)
VH: B1 VH with G35A
VL: B1 VL with A88H
B15: hGPN06-1_H1L1 VH G66A (antibody, V domains shown)
VH: B1 VH with G66A
VL: B1 VL with A88H
B16: hGPN06-1_H1L1 VH T58A (antibody, V domains shown)
VH: B1 VH with T58A
VL: B1 VL with A88H
B17: hGPN06-1_H1L1 VH Y60A (antibody, V domains shown)
VH: B1 VH with Y60A
VL: B1 VL with A88H
B18: hGPN06-1_H1L1 VH K65A (antibody, V domains shown)
VH: B1 VH with K65A
VL: B1 VL with A88H
B19: hGPN06-1_H1L1 VH N59A (antibody, V domains shown)
VH: B1 VH with N59A
VL: B1 VL with A88H
B20: hGPN06-1_H1L1 VH I51A (antibody, V domains shown)
VH: B1 VH with I51A
VL: B1 VL with A88H
B21: hGPN06-1_H1L1 VH S56A (antibody, V domains shown)
VH: B1 VH with S56A
VL: B1 VL with A88H
B22: hGPN06-1_H1L1 VH N61A (antibody, V domains shown)
VH: B1 VH with N61A
VL: B1 VL with A88H
B23: hGPN06-1_H1L1 VH M34A (antibody, V domains shown)
VH: B1 VH with M34A
VL: B1 VL with A88H
B24: hGPN06-1_H1L1 VH S54A (antibody, V domains shown)
VH: B1 VH with S54A
VL: B1 VL with A88H
B25: hGPN06-1_H1L1 VH F64A (antibody, V domains shown)
VH: B1 VH with F64A
VL: B1 VL with A88H
B26: hGPN06-1_H1L1 VH N63A (antibody, V domains shown)
VH: B1 VH with N63A
VL: B1 VL with A88H
B27: hGPN06-1_H1L1 VH P53A (antibody, V domains shown)
VH: B1 VH with P53A
VL: B1 VL with A88H
B28: hGPN06-1_H1L1 VH Y27A (antibody, V domains shown)
VH: B1 VH with Y27A
VL: B1 VL with A88H
B29: hGPN06-1_H1L1 VH W33A (antibody, V domains shown)
VH: B1 VH with W33A
VL: B1 VL with A88H
B30: hGPN06-1_H1L1 VH G26A (antibody, V domains shown)
VH: B1 VH with G26A
VL: B1 VL with A88H
B31: hGPN06-1_H1L1 VH N32A (antibody, V domains shown)
VH: B1 VH with N32A
VL: B1 VL with A88H
B32: hGPN06-1_H1L1 VH Q62A (antibody, V domains shown)
VH: B1 VH with Q62A
VL: B1 VL with A88H
B33: hGPN06-1_H1L1 VH T28A (antibody, V domains shown)
VH: B1 VH with T28A
VL: B1 VL with A88H

The target in one test is T1, recombinant human soluble gpNMB …. Nature of the test: antigen ELISA, vs hGPN06-1_H1L1. In general terms: In an ELISA, binding on a coated surface is turned into a signal by an enzyme label.
For B1, the Relative binding activity was 0.08.
B2: the Relative binding activity came out at 0.05.
In the case of B3, the Relative binding activity is 0.45.
Regarding B4, the Relative binding activity stood at 0.74.
As for B5, the Relative binding activity worked out at 0.98.
On the same count and under the same terms, to B6 belongs 0.58; to B7, 0.28; to B8, 0.06.
With B9, the Relative binding activity worked out at 0.27.
In the case of B10, the Relative binding activity came to 0.65.
As to B11, the Relative binding activity was 0.98.

For a further test the target is unchanged. Nature of the test: antigen ELISA.
Broadly, the EC50 is the concentration giving half of the maximal effect. Take B1: the concentration giving a half-maximal response (EC50) is 147 nM.
Consider B2, for which the EC50 came out at 26.4 nM.
Consider B3, for which the EC50 stood at 3.15 nM.
For B4, the EC50 worked out at 0.85 nM.
In the case of B5, the concentration giving a half-maximal response (EC50) was determined as 1.99 nM.
The same measure, in the same setting: the result for B6 reads 1.84 nM; that for B7, 42.9 nM.
On to B8, for which the EC50 came out at 27.5 nM.
Turning to B9, the EC50 turned out to be 23 nM.
Consider B10, for which the EC50 is 6.4 nM.
With B11, the concentration giving a half-maximal response (EC50) was determined as 0.564 nM.

For another test the target is unchanged. Nature of the test: antigen ELISA. This is another data set of the same source.
In the case of B12, the EC50 is 32.5 nM.
Turning to B13, the EC50 was 2.02 nM.
On the same count and under the same terms, the result for B14 reads 3.55 nM; that for B15, 0.373 nM.
Same read-out and setting: the result for B16 reads 28 nM; that for B17, 128 nM; that for B18, 0.406 nM.
Take B19: the concentration for a half-maximal effect (EC50) was determined as 29.4 nM.
With B20, the EC50 stood at 0.993 nM.
As for B21, the 50% effective concentration (EC50) turned out to be 0.429 nM.
As to B22, the EC50 was 26.1 nM.
Regarding B23, the concentration giving a half-maximal response (EC50) was found to be 3.55 nM.
For B24, the EC50 worked out at 0.652 nM.
In the case of B25, the EC50 came out at 0.448 nM.
Consider B26, for which the EC50 is 0.439 nM.
With B27, the concentration for a half-maximal effect (EC50) worked out at 0.801 nM.
Consider B28, for which the EC50 is 69.9 nM.
The same measure, in the same setting: the result for B29 reads 28.1 nM; that for B30, 1.21 nM; that for B31, 7.83 nM.
Consider B32, for which the concentration giving a half-maximal response (EC50) came to 0.406 nM.
Consider B33, for which the EC50 stood at 1.98 nM.

The target is the same in the next test. The test can be described thus: antigen ELISA, vs hGPN06-1_H1L1. The source holds these as a separate data set.
Turning to B12, the Relative binding activity stood at 0.09.
As for B13, the Relative binding activity was 1.23.
B14: the Relative binding activity was determined as 1.4.
In the case of B15, the Relative binding activity came out at 1.09.
The same measure, in the same setting: the result for B16 reads 0.04.
Consider B17, for which the Relative binding activity stood at 0.04.
Turning to B18, the Relative binding activity stood at 1.1.
Still for that read-out and setting: the result for B19 reads 0.04; that for B20, 0.89; that for B21, 1.14.
As to B22, the Relative binding activity was 0.04.
Turning to B23, the Relative binding activity is 1.06.
Turning to B24, the Relative binding activity turned out to be 0.92.
The same measure, in the same setting: the result for B25 reads 1.11; that for B26, 1.07.
With B27, the Relative binding activity stood at 0.85.
B28: the Relative binding activity worked out at 0.02.
As to B29, the Relative binding activity is 0.06.
Same read-out and setting: to B30 belongs 1.08; to B31, 0.35; to B32, 1.14.
In the case of B33, the Relative binding activity turned out to be 1.49.
